This note sets out measurements from patent US20230174643A1.

One experiment has as its target CD3 (human). Put plainly: cell-based or functional assay.
Another experiment addresses Human DLL3 (human) (UniProt Q9NYJ7). Put plainly: cell-based or functional assay.

Sequence of Human DLL3 (human) (Q9NYJ7 27-618 limits assumed): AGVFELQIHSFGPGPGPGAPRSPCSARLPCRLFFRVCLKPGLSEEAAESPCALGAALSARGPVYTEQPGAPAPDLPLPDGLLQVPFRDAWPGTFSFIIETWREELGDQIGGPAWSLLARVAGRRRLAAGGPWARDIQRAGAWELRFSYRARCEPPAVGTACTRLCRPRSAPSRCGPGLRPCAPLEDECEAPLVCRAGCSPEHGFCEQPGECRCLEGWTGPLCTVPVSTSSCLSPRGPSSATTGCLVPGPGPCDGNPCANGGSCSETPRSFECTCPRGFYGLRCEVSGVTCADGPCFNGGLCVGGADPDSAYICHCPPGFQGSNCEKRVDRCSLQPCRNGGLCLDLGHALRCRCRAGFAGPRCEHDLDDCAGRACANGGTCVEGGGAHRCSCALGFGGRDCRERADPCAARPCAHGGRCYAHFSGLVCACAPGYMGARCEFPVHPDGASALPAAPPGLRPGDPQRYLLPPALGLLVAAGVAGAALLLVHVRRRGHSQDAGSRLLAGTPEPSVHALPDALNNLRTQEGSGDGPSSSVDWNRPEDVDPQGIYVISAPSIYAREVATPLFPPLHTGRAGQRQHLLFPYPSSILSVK

For AMG 757 (bispecific antibody), in the experiment with CD3 (human), the EC90 of AMG 757-mediated CD69 upregulation is 4.6 ng/mL. In addition, in the experiment with Human DLL3 (human), the EC50 of AMG 757-mediated cell killing in SHP-77 cells came to 2.8 ng/mL, the EC90 of AMG 757-mediated cell killing in SHP-77 cells was found to be 5.7 ng/mL and the in vitro EC90 for AMG 757-mediated cell killing was 5.2 ng/mL.
